Test: soluble on expression in E. coli; label from the status in PepcDB or PDB records

| Sequence | soluble on expression in E. coli |
| --- | --- |
| DVKLVESGGGLVKPGRSLKLSCAASGFTFSDYYMFWVRQTPEQRLEWVATISDGGAYTYYPDSVKGRFTISRDNAKNNLYLQMNSLKSEDTGMYYCARDPLEYYGMDYWGQGTSVAVSSAKTTAPSVYPLAPVCGDTTGSSVTLGCLVKGYFPEPVTVTWNSGSLSSGVHTFPAVLQSDLYTLSSSVNVTSSTWPSQSITCNVAHPASSTKVDKKIVPR | soluble |
| MEKYQALLANNVENTAKEALHQLAYTGREYNNIQDQIETISDLLGHSQSLYDYLREPSKANLTILENMWSSVARNQKLYKQIRFLDTSGTEKVRIKYDFKTSIAGPSLILRDKSAREYFKYAQSLDNEQISAWGIELERDKGELVYPLSPSLRILMPISVNDVRQGYLVLNVDIEYLSSLLNYSPVRDFHIELVKHKGFYIASPDESRLYGDIIPERSQFNFSNMYPDIWPRVVSEQAGYSYSGEHLIAFSSIKFVSNEPLHLIIDLSNEQLSKRATRDINDLIQESLEHHHHHH | soluble |
| MGSDKIHHHHHHMIITLQDTETREISAKIDELHEERGEAALGRVLTLLISTNEAELEHDLEVANNASREHPCRVIAVAPSSRKISPEEEHPTFLDAEIRFGSDAGAGEIIVLRPRGGLVRHADTLVIPLLVPDAPVVAWWPNEAPANLSKDLLGSMASSRITDAMHSSNPRRTMDDLRRNRSAKDVDMSWTRLTVWRAMIASMLDQPPHLPVSNVRVTGQKDYLPLDLLAAWLRLRLNVPVMIEEDPNATAVTGVYLTRGDGVLSLERPSTDDGFAVISVPGQSPQTISVPARTLEECLSEELGRLYPDEIYSEVVSQGLDLVKPRQ | not soluble |
| MGSDKIHHHHHHMDPRSEVLLRQAELFQGPLLIAGAPADDLLGQLPQAQAWTWHAGDQAMLESRFAGRSHYGVEAPEAAFDSAVLFLPKSRELAAYLLNALASRLAGRELYLVGEKRGGIEGAAKQLQAFGKPRKLDSARHCQLWQVTIDQAPQAKPLESLAERFELALEDGPLQVVSLPGVFSHGRLDRGTALLLKHLDGLPGGHMLDFGCGAGVLGATLKRRYPQSRVTLLDVDAFAVAASRLTLAANGLEGEVISGDGIDAAPTELSLILSNPPFHTGVHTNYQASENLLKKSAVHLRKGGEMRLVANSFLRYQPLIEGALGNCQVRDEADGFRIYQATRG | not soluble |
| MAHHHHHHMGCTASKTKTPAANVASKGADEFYALATTERHPVAEKLLEEWVLFVDAQARRNAGDSSAARAYETRLKEVWADTTNRPVTHRSVDYVGKMFLEYIKEDLSHRGWGGNFDYKVAGVVTQGFLKANANIDTALSDTPEEVTWEIKIHYDSLGVS | soluble |
| MAHTRSLQMLKAHSTRSALRQPQKKETGTNGNDPSVAPKNAQADSGKDERRGSQAMGWSCFGGCIKDEIFSVFGIGRKIIGRV | not soluble |
| MGHHHHHHSHMSTVAFHTLGCKVNHYETEAIWQLFKQGGYERTEYEKKADVYVINTCTVTNTGDKKSRQVIRRAVRQNPDAVICVTGCYAQTSPAEIMAIPGVDIVVGTQDREKMLGYIEEFRKERQPINAVRNIMKTRVYEELDVPYFTDRTRASLKIQEGCNNFCTFCIIPWARGLMRSRDGKEVIKQAQQLVDAGYKEIVLTGIHTGGYGEDIKDYNLAGLLRDMEAEVGGLKRLRISSIEASQISDEVIEVLDKSEVVVRHLHIPLQSGSNTVLKRMRRKYTMEFFQERLDRLKEALPGLAITSDVIVGFPGETEEEFMETYNFIKENRFSELHVFPYSKRTGTPAARMEDQVPEDVKNDRVHRLIELSNQLAKEYASAFEGEVLEIIPEEQFKDGDREGLYVGYTDNYLKIVFEGSEELIGKLVKVKITKAGYPYNEAQFVRVLEDDVKKESASA | soluble |
| TDVATVVSQAKAQMKEAYYTYSHTVTETGQFPDIKDVYAAYNKAKQAYANAVAVVNKAGGAKKDAYLADLQAIYETYVFKANPKSGEARVATYIDAYNYATKLDKMRQELKAAVDAKDLKKAEELYHKISYELKTRTVILDRVYGQSTRELLRSTFKADAQALRDRLIYDITVAMKAREAQDAVKAGNLDKAKAALDQVNQYVSKVTDAFKAELQKAAQDAKAAYEAALTPKVESVSAIDSTSFKVTFTKPVDKATAIPKNFSITLKGTETKLYPKSVEVSESGLTATVTLYDTLVDGKTYTVVTSGLKDTAGKEFETSTNEFTYNKPVPASITFNFNKLPEDSAVDLTKYVTVKDAAGNVIKSGFELEFTSSEKLTQGKFINTTGKKSVIVNATVKGTNVTTGNVILAVED | soluble |
| MSVSGLKAELKFLASIFDKNHERFRIVSWKLDELHCQFLVPQQGSPHSLPPPLTLHCNITESYPSSSPIWFVDSEDPNLTSVLERLEDTKNNNLLRQQLKWLICELCSLYNLPKHLDVEMLDQPLPTGQNGTTEEVTSEEEEEEEEMAEDIEDLDHYEMKEEEPISGKKSEDEGIEKENLAILEKIRKTQRQDHLNGAVSGSVQASDRLMKELRDIYRSQSYKTGIYSVELINDSLYDWHVKLQKVDPDSPLHSDLQILKEKEGIEYILLNFSFKDNFPFDPPFVRVVLPVLSGGYVLGGGALCMELLTKQGWSSAYSIESVIMQINATLVKGKARVQFGANKNQYNLARAQQSYNSIVQIHEKNGWYTPPKEDG | soluble |
| MTKTTILLLCGGGSSEHEISLVSANYIQQQLELTPEFHVIRVEMKKEGWFSEQGALVYLDTNSATLNSDKASYPIDFVVPCIHGFPGETGDIQSMLELAGIPYLGCGPEASANSFNKITSKLWYDALDIPNTPYLFLTQNTPSSIDKAKQAFGHWGSIFVKAARQGSSVGCYKVTTEDQIAPAIEAAFGFSEQVLVEQAVKPRELEVSAYEMNGKLYISKPGEVIAPEGTFYSYEEKYSANSHARTVLEAENLTEKHKELIQTYAERVFIHMKLRHLSRIDFFLTQEGQIYLNEVNTFPGMTPISMFPKMLEHNGHRFSEFLVQCVTNTLVNAK | not soluble |
| MGSDKIHHHHHHMFSLEQLEAFMETVESGSFSNAARQLKKAQSVVSQHVMNLEIDCGVELFDRSGRYPVLTAEGSKLLPYARATILQHRRLKHTALSLFSRQSSEVCLAMDEGIPIQRISEIIQLLESDFPNIELEFLSASSIDIIDMVHSGRASTGLIFSELSMPSSIDFESIGVIEFDLYVASSHPLAKSVAPNMDSLRLYRQLCIRSRNTKTSSFQQVFSPDVWYADNYYVLLELALQGHGWCLLPEHMASSSVSSGNLTRVPIEFEQIGWYANVDVIQHQDKSSLPLLKRLRQLFRELLVGQK | not soluble |
| SPTVEACGYSDRIIQITRGDSTITSQDVANAIVAYGVWPHYLSSKDASAIDKPSQPDTSSNRFYTLRSVTWSSSSKGWWWKLPDALKDMGIFGENMFYHYLGRSGYTIHVQCNASKFHQGTLIVALIPEHQIASALHGNVNVGYNYTHPGETGREVKAETRLNPDLQPTEEYWLNFDGTLLGNITIFPHQFINLRSNNSATIIAPYVNAVPMDSMRSHNNWSLVIIPICPLETSSAINTIPITISISPMCAEFSGARAKRQ | soluble |
| MVVFVASSRWDPSPDVIGQLCCLVSGGRSVPSTALKLGLSLSAAYRLAREYQLPVRVQTSTSASVTKSIETLWKQDVKPSDISTRLNVGTSVVYRIGIELGLWQRNPHGRRASATSRRCEYVMLRFGAMSRKDTAKVVGINPRETLDIDKGVTKLNGVGRVPCVPDEPDTELYKRLMQVVPYVDGRQAVPVEVIPQHAIDKRMSPR | not soluble |
| MGSDKIHHHHHHMRRALRPSMELISARTSSTSSIWTPRVSQSSELVFDATGCCSSLSGSSACDRGDGIVRGITMDRQRLQALGHKVRMIPAQFVKPHVKSNKSDIIDAEAIAEAATRPTMRFAAIKSEEQADLQALHRVRDQMIGTRTRLINQMGAFCLEYDIALRQGAGLFKLDLPLVLDDLE | not soluble |
| MGSDKIHHHHHHMSQDTILLIWDRIGDYHLSRVKACEKLLGAPVFTADLAGTDNLYKWDSIAKTTHTVLSSKPAEQSDIWNRFRTFRRIIKTHSIAVVAMPYGRTEYHIFLLYARLKGIRTIIFSESWYSRGKLKDFLKSLLLKSLGNYFFVSGKRAFDHFTKNYKINPEKIETGYSVVDNNHFQRRLFTEKKYVLTIARYSEEKNLSFLIDSYAKSVISNTYNLMLIGEGPLRPALQSQIDILGLSDRVQLAGWVPYAALPKAYAEAVVFVLPSSFEPWGLVVNEAMSAGLPILVSDACGCMPELVAEGVNGWSFNSNTQQELIERLNAFAALSEKGIEITGKNSMQLIRNYTPDTWAGSIARLAQAGR | not soluble |
| LLHGDFELAVPGGPVAAYYAAPAGREQLPIVLVVQEIFGLHEHIKDVCRRLAHDGYLAVSVNLYQRQGDASRYDNIPGLVAELVSKVPDEQVHADLDASLAWAAAHGGDGARVGVTGFCWGGRTTWMYAARNPAVKAGVAWYGRLSSGHGPLIKQVPLDVAGSLHAPVLGLYGGKDESIPLDDVRAMEARLQQGGAPAQASRIVVYPQAGHAFLADYRPSYRAADAQDGWRRMLDWFALYL | not soluble |
| NQVLSGVSFQLMPGEVHALMGENGAGKSTLMNILTGLHKADKGQISINGNETYFSNPKEAEQHGIAFIHQELNIWPEMTVLENLFIGKEISSKLGVLQTRKMKALAKEQFDKLSVSLSLDQEAGECSVGQQQMIEIAKALMTNAEVIIMDEPTAALTEREISKLFEVITALKKNGVSIVYISHRMEEIFAICDRITIMRDGKTVDTTNISETDFDEVVKKMVGRELTERYPKRTPSLGDKVFEVKNASVKGSFEDVSFYVRSGEIVGVSGLMGAGRTEMMRALFGVDRLDTGEIWIAGKKTAIKNPQEAVKKGLGFITENRKDEGLLLDTSIRENIALPNLSSFSPKGLIDHKREAEFVDLLIKRLTIKTASPETHARHLSGGNQQKVVIAKWIGIGPKVLILDEPTRGVDVGAKREIYTLMNELTERGVAIIMVSSELPEILGMSDRIIVVHEGRISGEIHAREATQERIMTLATGGR | not soluble |
| MGSDKIHHHHHHMTTATPLLSLQKPTPIALAEIEESLSQLWANQQHSGAGALVSRAATFSIVVYEPEEFQQILAALGLYHGHLDGLHGPMTRAAIAQAQTQFGLPSTGRPDSATFKALRQAYQALKHSPSLTNQDLRGAVLSNVIATQNPCRIVSLCPTLEGDRPISAEVSAYCPITSAKQASLICCEAVTLRGSQAEMEAIGTFVSELLLPGLPRYVWWKATPNPEQLLFQQLANSCNCMIFDSSYFSDPEAEFLRFQDLIDQETYIADLNWHRLAAWQELTAAAFDPPERRDGLLEVDQLVIDYEKGNPAQALMYMGWIASRLGWQPVSYRCEGGEYDLRQIEFRTEDDRMVKVELAGIPVGDPGLVLGDLIALRLTSENPDADCCTILCSETTGCMRMEAGGGAQSCRTEQVAPPSNETSESLLAMQMQRWGRDALYEESLAVIAVALRQRTHA | not soluble |
| DTETTGLPADETQFISGVDAPAPVSVGWQLLDFRFRCIEEVVCRLSTDEPVSPEAAALHGITDASLHGDDPHEVYARLLGAVSKAKVLSAHNLAFHRSVLVYDMRRRGFDPSPLFSLDDYCTMEAGVDFTHLYGSCGTWKLPRLTELFGVLYFGLPGVRTTYREKVRNDIRLVAACLHRMNPTTPSLE | not soluble |
| MENKEVIIIGAGAAGVGMGVALKDFGINNFAILERKQVGNSFIKWPEQTRFITPSFTSNGFGMPDLNAIAIDTSPSYTLGEERLSGKDYAKYLQLVSEEYKLPIKTNCKVQSIKKEKTGYLLETTKGFIYAEYVIFAMGEFSFPNKSSIKGAYKNSLHYGEINSWIEIKGDKQTIIGGNESAIDAAIELAKLGKRVTIYTDTLGLNIRDADPSKRLAPRTRQRFFDLRVNQKKLDSIKIYTTTKVKKIEKKSTSYILITENGKSLPVENIPILCTGFKNGTKSITASLFKYKENGEVLLNDFDESTIAKNIFLTGPNVRKGNTIFCYIYKFRQRFAVIANEIARRKHITIDEKKLSYYKNQSFYLDGCSGCEVRCSCLEHHHHHH | soluble |

Source: the DeepSol protein solubility set
